Values of other authors as cited in paper PMC6023760.

Biological target: Thrombin exosite 2 (Homo sapiens) (UniProt P00734)

Kd: 200 nM
Substance: Fibrin γ′-chain γ′ site (from UniProt P02679)
